Holding throughout (assay type): biochemical
A short description of test [1]: ω-transaminase activity assay, reverse direction (7-aminoheptanoate to pimelate semialdehyde). Conditions: cell free extract, 10 mM 7-aminoheptanoate, 10 mM pyruvate, 25° C., 4 h; against empty vector control; FIG. 15. How it is done:
(§1) A sequence encoding an N-terminal His-tag was added to the genes from Chromobacterium violaceum, Pseudomonas syringae, Rhodobacter sphaeroides, and Vibrio Fluvialis encoding the ω-transaminases of SEQ ID NOs: 8, 10, 11 and 13, respectively (see FIGS. 7F and 7G) such that N-terminal HIS tagged ω-transaminases could be produced. Each of the resulting modified genes was cloned into a pET21a expression vector under control of the T7 promoter and each expression vector was transformed into a BL21[DE3] E. coli host. The resulting recombinant E. coli strains were cultivated at 37° C. in a 250 mL shake flask culture containing 50 mL LB media and antibiotic selection pressure, with shaking at 230 rpm. Each culture was induced overnight at 16° C. using 1 mM IPTG.
(§2) The pellet from each induced shake flask culture was harvested via centrifugation. Each pellet was resuspended and lysed via sonication. The cell debris was separated from the supernatant via centrifugation and the cell free extract was used immediately in enzyme activity assays.
Enzyme activity assays in the reverse direction (i.e., 7-aminoheptanoate to pimelate semialdehyde) were performed in a buffer composed of a final concentration of 50 mM HEPES buffer (pH=7.5), 10 mM 7-aminoheptanoate, 10 mM pyruvate and 100 μM pyridoxyl 5′ phosphate. Each enzyme activity assay reaction was initiated by adding cell free extract of the ω-transaminase gene product or the empty vector control to the assay buffer containing the 7-aminoheptanoate and incubated at 25° C. for 4 h, with shaking at 250 rpm. The formation of L-alanine from pyruvate was quantified via RP-HPLC.

Test [2] is described as follows: ω-transaminase activity assay, forward direction (pimelate semialdehyde to 7-aminoheptanoate). Particulars: for acceptance of pimelate semialdehyde as substrate (formation of pyruvate from L-alanine, RP-HPLC): cell free extract, 10 mM pimelate semialdehyde, 10 mM L-alanine, 25° C., 4 h, against empty vector control, FIG. 16; for acceptance of pimelate semialdehyde as substrate, synthesizing 7-aminoheptanoate (conclusion from confirmed reversibility): concluded from reversibility of the ω-transaminase activity. How it is done:
as §1, §2
Enzyme activity in the forward direction (i.e., pimelate semialdehyde to 7-aminoheptanoate) was confirmed for the transaminases of SEQ ID NO 10, SEQ ID NO 11 and SEQ ID NO 13. Enzyme activity assays were performed in a buffer composed of a final concentration of 50 mM HEPES buffer (pH=7.5), 10 mM pimelate semialdehyde, 10 mM L-alanine and 100 μM pyridoxyl 5′ phosphate. Each enzyme activity assay reaction was initiated by adding a cell free extract of the ω-transaminase gene product or the empty vector control to the assay buffer containing the pimelate semialdehyde and incubated at 25° C. for 4 h, with shaking at 250 rpm. The formation of pyruvate was quantified via RP-HPLC.

Test [3] is described as follows: Carboxylate reductase activity assay, N7-acetyl-7-aminoheptanoate to N7-acetyl-7-aminoheptanal. Conditions: purified enzyme enhanced by sfp gene product, 2 mM substrate, room temperature, 20 min; against empty vector control; FIG. 12. On the procedure:
The activity of each of the N-terminal His-tagged carboxylate reductases of SEQ ID NOs: 3, 6, and 7 (see Examples 4, and FIGS. 7B, 7E, and 7F) for converting N7-acetyl-7-aminoheptanoate to N7-acetyl-7-aminoheptanal was assayed in triplicate in a buffer composed of a final concentration of 50 mM HEPES buffer (pH=7.5), 2 mM N7-acetyl-7-aminoheptanoate, 10 mM MgCl2, 1 mM ATP, and 1 mM NADPH. The assays were initiated by adding purified carboxylate reductase and phosphopantetheine transferase or the empty vector control to the assay buffer containing the N7-acetyl-7-aminoheptanoate then incubated at room temperature for 20 min. The consumption of NADPH was monitored by absorbance at 340 nm.

Test [4] in a line: ω-transaminase activity assay, 7-aminoheptanol to 7-oxoheptanol. On the procedure: A nucleotide sequence encoding an N-terminal His-tag was added to the Chromobacterium violaceum, Pseudomonas syringae and Rhodobacter sphaeroides genes encoding the ω-transaminases of SEQ ID NOs: 8, 10 and 11, respectively (see FIGS. 7F and 7G) such that N-terminal HIS tagged ω-transaminases could be produced. The modified genes were cloned into a pET21a expression vector under the T7 promoter. Each expression vector was transformed into a BL21[DE3] E. coli host. Each resulting recombinant E. coli strain were cultivated at 37° C. in a 250 mL shake flask culture containing 50 mL LB media and antibiotic selection pressure, with shaking at 230 rpm. Each culture was induced overnight at 16° C. using 1 mM IPTG.
as §2
Enzyme activity assays in the reverse direction (i.e., 7-aminoheptanol to 7-oxoheptanol) were performed in a buffer composed of a final concentration of 50 mM HEPES buffer (pH=7.5), 10 mM 7-aminoheptanol, 10 mM pyruvate, and 100 μM pyridoxyl 5′ phosphate. Each enzyme activity assay reaction was initiated by adding cell free extract of the ω-transaminase gene product or the empty vector control to the assay buffer containing the 7-aminoheptanol and then incubated at 25° C. for 4 h, with shaking at 250 rpm. The formation of L-alanine was quantified via RP-HPLC.

B1: SEQ ID NO 13: Vibrio fluvialis ω-transaminase, Genbank Accession No. AEA39183.1 (protein, listed as Vibrio fluvialis)
chain: MNKPQSWEARAETYSLYGFTDMPSLHQRGTVVVTHGEGPYIVDVNGRRYLDANSGLWNMVAGFDHKGLIDAAKAQYERFPGYHAFFGRMSDQTVMLSEKLVEVSPFDSGRVFYTNSGSEANDTMVKMLWFLHAAEGKPQKRKILTRWNAYHGVTAVSASMTGKPYNSVFGLPLPGFVHLTCPHYWRYGEEGETEEQFVARLARELEETIQREGADTIAGFFAEPVMGAGGVIPPAKGYFQAILPILRKYDIPVISDEVICGFGRTGNTWGCVTYDFTPDAIISSKNLTAGFFPMGAVILGPELSKRLETAIEAIEEFPHGFTASGHPVGCAIALKAIDVVMNEGLAENVRRLAPRFEERLKHIAERPNIGEYRGIGFMWALEAVKDKASKTPFDGNLSVSERIANTCTDLGLICRPLGQSVVLCPPFILTEAQMDEMFDKLEKALDKVFAEVA
Consider B1, for which the “acceptance of 7-aminoheptanoate as substrate (formation of L-alanine from pyruvate, RP-HPLC)” value in test [1] is listed as “accepted 7-aminoheptanote as substrate”. Also, in test [2], the “acceptance of pimelate semialdehyde as substrate (formation of pyruvate from L-alanine, RP-HPLC)” value is “accepted pimelate semialdehyde as substrate” and the “acceptance of pimelate semialdehyde as substrate, synthesizing 7-aminoheptanoate (conclusion from confirmed reversibility)” value is “accepted pimelate semialdehyde as substrate”.

B2: SEQ ID NO 6: Mycobacterium massiliense carboxylate reductase, Genbank Accession No. EIV11143.1 (protein)
chain: MTNETNPQQEQLSRRIESLRESDPQFRAAQPDPAVAEQVLRPGLHLSEAIAALMTGYAERPALGERARELVIDQDGRTTLRLLPRFDTTTYGELWSRTTSVAAAWHHDATHPVKAGDLVATLGFTSIDYTVLDLAIMILGGVAVPLQTSAPASQWTTILAEAEPNTLAVSIELIGAAMESVRATPSIKQVVVFDYTPEVDDQREAFEAASTQLAGTGIALETLDAVIARGAALPAAPLYAPSAGDDPLALLIYTSGSTGAPKGAMHSENIVRRWWIREDVMAGTENLPMIGLNFMPMSHIMGRGTLTSTLSTGGTGYFAASSDMSTLFEDMELIRPTALALVPRVCDMVFQRFQTEVDRRLASGDTASAEAVAAEVKADIRDNLFGGRVSAVMVGSAPLSEELGEFIESCFELNLTDGYGSTEAGMVFRDGIVQRPPVIDYKLVDVPELGYFSTDKPHPRGELLLKTDGMFLGYYKRPEVTASVFDADGFYMTGDIVAELAHDNIEIIDRRNNVLKLSQGEFVAVATLEAEYANSPVVHQIYVYGSSERSYLLAVVVPTPEAVAAAKGDAAALKTTIADSLQDIAKEIQLQSYEVPRDFIIEPQPFTQGNGLLTGIAKLARPNLKAHYGPRLEQMYAEIAEQQAAELRALHGVDPDKPALETVLKAAQALLGVSSAELAADAHFTDLGGDSLSALSFSDLLRDIFAVEVPVGVIVSAANDLGGVAKFVDEQRHSGGTRPTAETVHGAGHTEIRAADLTLDKFIDEATLHAAPSLPKAAGIPHTVLLTGSNGYLGHYLALEWLERLDKTDGKLIVIVRGKNAEAAYGRLEEAFDTGDTELLAHFRSLADKHLEVLAGDIGDPNLGLDADTWQRLADTVDVIVHPAALVNHVLPYNQLFGPNVVGTAEIIKLAITTKIKPVTYLSTVAVAAYVDPTTFDEESDIRLISAVRPIDDGYANGYGNAKWAGEVLLREAHDLCGLPVAVFRSDMILAHSRYTGQLNVPDQFTRLILSLIATGIAPGSFYQAQTTGERPLAHYDGLPGDFTAEAITTLGTQVPEGSEGFVTYDCVNPHADGISLDNFVDWLIEAGYPIARIDNYTEWFTRFDTAIRGLSEKQKQHSLLPLLHAFEQPSAAENHGVVPAKRFQHAVQAAGIGPVGQDGTTDIPHLSRRLIVKYAKDLEQLGLL
modifications: Mycobacterium massiliense
Turning to B2, the “acceptance of N7-acetyl-7-aminoheptanoate as substrate (NADPH consumption, absorbance at 340 nm)” value in test [3] is reported as “accepted N7-acetyl-7-aminoheptanoate as substrate”.

B3: SEQ ID NO 10: Pseudomonas syringae ω-transaminase, Genbank Accession No. AAY39893.1 (protein, listed as Pseudomonas syringae)
chain: MSANNPQTLEWQALSSEHHLAPFSDYKQLKEKGPRIITRAEGVYLWDSEGNKILDGMSGLWCVAIGYGREELADAASKQMRELPYYNLFFQTAHPPVLELAKAISDIAPEGMNHVFFTGSGSEGNDTMLRMVRHYWALKGQPNKKTIISRVNGYHGSTVAGASLGGMTYMHEQGDLPIPGVVHIPQPYWFGEGGDMTPDEFGIWAAEQLEKKILELGVENVGAFIAEPIQGAGGVIVPPDSYWPKIKEILSRYDILFAADEVICGFGRTSEWFGSDFYGLRPDMMTIAKGLTSGYVPMGGLIVRDEIVAVLNEGGDFNHGFTYSGHPVAAAVALENIRILREEKIVERVRSETAPYLQKRLRELSDHPLVGEVRGVGLLGAIELVKDKTTRERYTDKGAGMICRTFCFDNGLIMRAVGDTMIIAPPLVISFAQIDELVEKARTCLDLTLAVLQG
With B3, the “acceptance of 7-aminoheptanol as substrate (formation of L-alanine, RP-HPLC)” value in test [4] (cell free extract, 10 mM 7-aminoheptanol, 10 mM pyruvate, 25° C., 4 h, against empty vector control, FIG. 19) was “accepted 7-aminoheptanol as substrate”. Besides, the “acceptance of 7-oxoheptanol as substrate, forming 7-aminoheptanol (concluded from reversibility)” value in test [4] (concluded from reversibility of the ω-transaminase activity (Example 2)) is “accept 7-oxoheptanol as substrate”. Besides, the “acceptance of 7-aminoheptanoate as substrate (formation of L-alanine from pyruvate, RP-HPLC)” value in test [1] is reported as “accepted 7-aminoheptanote as substrate”. In test [2], the “acceptance of pimelate semialdehyde as substrate (formation of pyruvate from L-alanine, RP-HPLC)” value is “accepted pimelate semialdehyde as substrate” and the “acceptance of pimelate semialdehyde as substrate, synthesizing 7-aminoheptanoate (conclusion from confirmed reversibility)” value is recorded as “accepted pimelate semialdehyde as substrate”.

B4: SEQ ID NO 3: Mycobacterium smegmatis carboxylate reductase, Genbank Accession No. ABK71854.1 (protein, listed as Mycobacterium smegmatis)
chain: MTSDVHDATDGVTETALDDEQSTRRIAELYATDPEFAAAAPLPAVVDAAHKPGLRLAEILQTLFTGYGDRPALGYRARELATDEGGRTVTRLLPRFDTLTYAQVWSRVQAVAAALRHNFAQPIYPGDAVATIGFASPDYLTLDLVCAYLGLVSVPLQHNAPVSRLAPILAEVEPRILTVSAEYLDLAVESVRDVNSVSQLVVFDHHPEVDDHRDALARAREQLAGKGIAVTTLDAIADEGAGLPAEPIYTADHDQRLAMILYTSGSTGAPKGAMYTEAMVARLWTMSFITGDPTPVINVNFMPLNHLGGRIPISTAVQNGGTSYFVPESDMSTLFEDLALVRPTELGLVPRVADMLYQHHLATVDRLVTQGADELTAEKQAGAELREQVLGGRVITGFVSTAPLAAEMRAFLDITLGAHIVDGYGLTETGAVTRDGVIVRPPVIDYKLIDVPELGYFSTDKPYPRGELLVRSQTLTPGYYKRPEVTASVFDRDGYYHTGDVMAETAPDHLVYVDRRNNVLKLAQGEFVAVANLEAVFSGAALVRQIFVYGNSERSFLLAVVVPTPEALEQYDPAALKAALADSLQRTARDAELQSYEVPADFIVETEPFSAANGLLSGVGKLLRPNLKDRYGQRLEQMYADIAATQANQLRELRRAAATQPVIDTLTQAAATILGTGSEVASDAHFTDLGGDSLSALTLSNLLSDFFGFEVPVGTIVNPATNLAQLAQHIEAQRTAGDRRPSFTTVHGADATEIRASELTLDKFIDAETLRAAPGLPKVTTEPRTVLLSGANGWLGRFLTLQWLERLAPVGGTLITIVRGRDDAAARARLTQAYDTDPELSRRFAELADRHLRVVAGDIGDPNLGLTPEIWHRLAAEVDLVVHPAALVNHVLPYRQLFGPNVVGTAEVIKLALTERIKPVTYLSTVSVAMGIPDFEEDGDIRTVSPVRPLDGGYANGYGNSKWAGEVLLREAHDLCGLPVATFRSDMILAHPRYRGQVNVPDMFTRLLLSLLITGVAPRSFYIGDGERPRAHYPGLTVDFVAEAVTTLGAQQREGYVSYDVMNPHDDGISLDVFVDWLIRAGHPIDRVDDYDDWVRRFETALTALPEKRRAQTVLPLLHAFRAPQAPLRGAPEPTEVFHAAVRTAKVGPGDIPHLDEALIDKYIRDLREFGLI
Turning to B4, the “acceptance of N7-acetyl-7-aminoheptanoate as substrate (NADPH consumption, absorbance at 340 nm)” value in test [3] is “accepted N7-acetyl-7-aminoheptanoate as substrate”.
